{
  "source": "patent US10464978B2",
  "about": "“Peptides and combination of peptides for use in immunotherapy against ovarian cancer and other cancers” (immatics biotechnologies GmbH, priority 2015, dated 2019)",
  "data": [
    {"target": "HLA-A*02:01 (Homo sapiens, UniProt P04439, D140Y/D185E/D98H/E176V/E277Q/G131W/G231S/I119V/I121R/I166T/I218V/L300P/L318F/N151K/N90K/P208A/P217A/Q86G/Q94H/R138H/R169H/T345S)", "test": "MHC binding assay: UV-ligand exchange with beta2m ELISA (peptide exchange yield)", "settings": "binding to HLA-A*02:01", "summary_of_the_method": "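Peptide-MHC complexes formed by UV-ligand exchange, a UV-cleavable peptide being replaced by the candidate peptide. Exchange products diluted 100-fold, captured on streptavidin-coated plates for 1h at 37° C, then detected with 2 ug/ml HRP anti-β2m (1h, 37° C) and TMB, absorbance 450 nm; value is exchange yield.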", "values": [
      {"substance": "339 (GLWEIENNPTVKA; listed as Homo sapiens) [compound 339]", "Peptide exchange (MHC class I binding score, peptide exchange yield)": "“++++” (≥75% = ++++)"},
      {"substance": "340 (ALLSMTFPL; listed as Homo sapiens) [compound 340]", "Peptide exchange (MHC class I binding score, peptide exchange yield)": "“++++” (≥75% = ++++)"},
      {"substance": "341 (SQIALNEKLVNL; listed as Homo sapiens) [compound 341]", "Peptide exchange (MHC class I binding score, peptide exchange yield)": "“+++” (≥50 = +++)"},
      {"substance": "342 (HIYDKVMTV; listed as Homo sapiens) [compound 342]", "Peptide exchange (MHC class I binding score, peptide exchange yield)": "“+++” (≥50 = +++)"},
      {"substance": "343 (SLLEVNEESTV; listed as Homo sapiens) [compound 343]", "Peptide exchange (MHC class I binding score, peptide exchange yield)": "“+++” (≥50 = +++)"},
      {"substance": "344 (YLQDQHLLLTV; listed as Homo sapiens) [compound 344]", "Peptide exchange (MHC class I binding score, peptide exchange yield)": "“+++” (≥50 = +++)"},
      {"substance": "345 (VIWKALIHL; listed as Homo sapiens) [compound 345]", "Peptide exchange (MHC class I binding score, peptide exchange yield)": "“+++” (≥50 = +++)"},
      {"substance": "346 (LLDSKVPSV; listed as Homo sapiens) [compound 346]", "Peptide exchange (MHC class I binding score, peptide exchange yield)": "“+++” (≥50 = +++)"},
      {"substance": "347 (SLFKHDPAAWEA; listed as Homo sapiens) [compound 347]", "Peptide exchange (MHC class I binding score, peptide exchange yield)": "“++++” (≥75% = ++++)"},
      {"substance": "348 (ILLDVKTRL; listed as Homo sapiens) [compound 348]", "Peptide exchange (MHC class I binding score, peptide exchange yield)": "“++++” (≥75% = ++++)"},
      {"substance": "349 (SLTEYLQNV; listed as Homo sapiens) [compound 349]", "Peptide exchange (MHC class I binding score, peptide exchange yield)": "“++++” (≥75% = ++++)"},
      {"substance": "350 (ALLDVTHSELTV; listed as Homo sapiens) [compound 350]", "Peptide exchange (MHC class I binding score, peptide exchange yield)": "“+++” (≥50 = +++)"},
      {"substance": "351 (SLIPNLRNV; listed as Homo sapiens) [compound 351]", "Peptide exchange (MHC class I binding score, peptide exchange yield)": "“+++” (≥50 = +++)"},
      {"substance": "352 (SLLELLHIYV; listed as Homo sapiens) [compound 352]", "Peptide exchange (MHC class I binding score, peptide exchange yield)": "“+++” (≥50 = +++)"},
      {"substance": "353 (YLFEMDSSL; listed as Homo sapiens) [compound 353]", "Peptide exchange (MHC class I binding score, peptide exchange yield)": "“++” (≥20% = ++)"},
      {"substance": "354 (LILEGVDTV; listed as Homo sapiens) [compound 354]", "Peptide exchange (MHC class I binding score, peptide exchange yield)": "“++” (≥20% = ++)"},
      {"substance": "355 (SIQQSIERLLV; listed as Homo sapiens) [compound 355]", "Peptide exchange (MHC class I binding score, peptide exchange yield)": "“++” (≥20% = ++)"},
      {"substance": "356 (KLLGKLPEL; listed as Homo sapiens) [compound 356]", "Peptide exchange (MHC class I binding score, peptide exchange yield)": "“+++” (≥50 = +++)"},
      {"substance": "357 (SMHDLVLQV; listed as Homo sapiens) [compound 357]", "Peptide exchange (MHC class I binding score, peptide exchange yield)": "“+++” (≥50 = +++)"},
      {"substance": "358 (ALDEYTSEL; listed as Homo sapiens) [compound 358]", "Peptide exchange (MHC class I binding score, peptide exchange yield)": "“++++” (≥75% = ++++)"},
      {"substance": "359 (YLLPESVDL; listed as Homo sapiens) [compound 359]", "Peptide exchange (MHC class I binding score, peptide exchange yield)": "“+++” (≥50 = +++)"},
      {"substance": "361 (ALYELEGTTV; listed as Homo sapiens) [compound 361]", "Peptide exchange (MHC class I binding score, peptide exchange yield)": "“+++” (≥50 = +++)"},
      {"substance": "362 (TLYGLSVLL; listed as Homo sapiens) [compound 362]", "Peptide exchange (MHC class I binding score, peptide exchange yield)": "“+++” (≥50 = +++)"},
      {"substance": "363 (KVLDVSDLESV; listed as Homo sapiens) [compound 363]", "Peptide exchange (MHC class I binding score, peptide exchange yield)": "“++” (≥20% = ++)"},
      {"substance": "364 (LLQNEQFEL; listed as Homo sapiens) [compound 364]", "Peptide exchange (MHC class I binding score, peptide exchange yield)": "“+++” (≥50 = +++)"},
      {"substance": "365 (YVIDQGETDVYV; listed as Homo sapiens) [compound 365]", "Peptide exchange (MHC class I binding score, peptide exchange yield)": "“+++” (≥50 = +++)"},
      {"substance": "366 (RLLDMGETDLML; listed as Homo sapiens) [compound 366]", "Peptide exchange (MHC class I binding score, peptide exchange yield)": "“+++” (≥50 = +++)"},
      {"substance": "367 (SLQNHNHQL; listed as Homo sapiens) [compound 367]", "Peptide exchange (MHC class I binding score, peptide exchange yield)": "“+++” (≥50 = +++)"},
      {"substance": "369 (GLFPEHLIDV; listed as Homo sapiens) [compound 369]", "Peptide exchange (MHC class I binding score, peptide exchange yield)": "“+++” (≥50 = +++)"},
      {"substance": "370 (SLLQDLVSV; listed as Homo sapiens) [compound 370]", "Peptide exchange (MHC class I binding score, peptide exchange yield)": "“+++” (≥50 = +++)"},
      {"substance": "371 (FLQAHLHTA; listed as Homo sapiens) [compound 371]", "Peptide exchange (MHC class I binding score, peptide exchange yield)": "“++++” (≥75% = ++++)"},
      {"substance": "372 (TMLLNIPLV; listed as Homo sapiens) [compound 372]", "Peptide exchange (MHC class I binding score, peptide exchange yield)": "“++” (≥20% = ++)"},
      {"substance": "373 (SLLEDKGLAEV; listed as Homo sapiens) [compound 373]", "Peptide exchange (MHC class I binding score, peptide exchange yield)": "“++” (≥20% = ++)"},
      {"substance": "374 (FLLQQHLISA; listed as Homo sapiens) [compound 374]", "Peptide exchange (MHC class I binding score, peptide exchange yield)": "“++” (≥20% = ++)"},
      {"substance": "375 (SLTETIEGV; listed as Homo sapiens) [compound 375]", "Peptide exchange (MHC class I binding score, peptide exchange yield)": "“++” (≥20% = ++)"},
      {"substance": "376 (AMFESSQNVLL; listed as Homo sapiens) [compound 376]", "Peptide exchange (MHC class I binding score, peptide exchange yield)": "“++” (≥20% = ++)"},
      {"substance": "377 (FLLDSSASV; listed as Homo sapiens) [compound 377]", "Peptide exchange (MHC class I binding score, peptide exchange yield)": "“++” (≥20% = ++)"},
      {"substance": "378 (ALGYFVPYV; listed as Homo sapiens) [compound 378]", "Peptide exchange (MHC class I binding score, peptide exchange yield)": "“+++” (≥50 = +++)"},
      {"substance": "379 (IMEGTLTRV; listed as Homo sapiens) [compound 379]", "Peptide exchange (MHC class I binding score, peptide exchange yield)": "“++” (≥20% = ++)"},
      {"substance": "380 (TLIEDEIATI; listed as Homo sapiens) [compound 380]", "Peptide exchange (MHC class I binding score, peptide exchange yield)": "“++” (≥20% = ++)"},
      {"substance": "381 (FIDEAYVEV; listed as Homo sapiens) [compound 381]", "Peptide exchange (MHC class I binding score, peptide exchange yield)": "“++” (≥20% = ++)"},
      {"substance": "382 (ALQNYIKEA; listed as Homo sapiens) [compound 382]", "Peptide exchange (MHC class I binding score, peptide exchange yield)": "“++” (≥20% = ++)"},
      {"substance": "383 (ALLELENSVTL; listed as Homo sapiens) [compound 383]", "Peptide exchange (MHC class I binding score, peptide exchange yield)": "“+++” (≥50 = +++)"},
      {"substance": "384 (ILFANPNIFV; listed as Homo sapiens) [compound 384]", "Peptide exchange (MHC class I binding score, peptide exchange yield)": "“+++” (≥50 = +++)"},
      {"substance": "385 (SLLEQGLVEA; listed as Homo sapiens) [compound 385]", "Peptide exchange (MHC class I binding score, peptide exchange yield)": "“++” (≥20% = ++)"},
      {"substance": "386 (ILFRYPLTI; listed as Homo sapiens) [compound 386]", "Peptide exchange (MHC class I binding score, peptide exchange yield)": "“+++” (≥50 = +++)"},
      {"substance": "387 (ALFQATAEV; listed as Homo sapiens) [compound 387]", "Peptide exchange (MHC class I binding score, peptide exchange yield)": "“++++” (≥75% = ++++)"},
      {"substance": "388 (SLTIDGIRYV; listed as Homo sapiens) [compound 388]", "Peptide exchange (MHC class I binding score, peptide exchange yield)": "“+++” (≥50 = +++)"},
      {"substance": "389 (LLADVTHLL; listed as Homo sapiens) [compound 389]", "Peptide exchange (MHC class I binding score, peptide exchange yield)": "“++” (≥20% = ++)"},
      {"substance": "390 (ALFMKQIYL; listed as Homo sapiens) [compound 390]", "Peptide exchange (MHC class I binding score, peptide exchange yield)": "“+++” (≥50 = +++)"},
      {"substance": "391 (YVYPQRLNFV; listed as Homo sapiens) [compound 391]", "Peptide exchange (MHC class I binding score, peptide exchange yield)": "“+++” (≥50 = +++)"},
      {"substance": "392 (ALLHPQGFEV; listed as Homo sapiens) [compound 392]", "Peptide exchange (MHC class I binding score, peptide exchange yield)": "“++” (≥20% = ++)"},
      {"substance": "393 (GLLDTQTSQVLTA; listed as Homo sapiens) [compound 393]", "Peptide exchange (MHC class I binding score, peptide exchange yield)": "“++” (≥20% = ++)"},
      {"substance": "394 (LLAVIGGLVYL; listed as Homo sapiens) [compound 394]", "Peptide exchange (MHC class I binding score, peptide exchange yield)": "“+++” (≥50 = +++)"},
      {"substance": "395 (ALALGGIAVV; listed as Homo sapiens) [compound 395]", "Peptide exchange (MHC class I binding score, peptide exchange yield)": "“++++” (≥75% = ++++)"},
      {"substance": "396 (ALLPDLPAL; listed as Homo sapiens) [compound 396]", "Peptide exchange (MHC class I binding score, peptide exchange yield)": "“+++” (≥50 = +++)"},
      {"substance": "397 (YLFGERLLEC; listed as Homo sapiens) [compound 397]", "Peptide exchange (MHC class I binding score, peptide exchange yield)": "“+++” (≥50 = +++)"},
      {"substance": "398 (KLLEEDGTIITL; listed as Homo sapiens) [compound 398]", "Peptide exchange (MHC class I binding score, peptide exchange yield)": "“++” (≥20% = ++)"},
      {"substance": "399 (YLFEPLYHV; listed as Homo sapiens) [compound 399]", "Peptide exchange (MHC class I binding score, peptide exchange yield)": "“+++” (≥50 = +++)"},
      {"substance": "400 (SLLTEQDLWTV; listed as Homo sapiens) [compound 400]", "Peptide exchange (MHC class I binding score, peptide exchange yield)": "“++” (≥20% = ++)"},
      {"substance": "401 (ILLDDTGLAYI; listed as Homo sapiens) [compound 401]", "Peptide exchange (MHC class I binding score, peptide exchange yield)": "“+++” (≥50 = +++)"},
      {"substance": "402 (VLFSGALLGL; listed as Homo sapiens) [compound 402]", "Peptide exchange (MHC class I binding score, peptide exchange yield)": "“++” (≥20% = ++)"},
      {"substance": "403 (KLYDRILRV; listed as Homo sapiens) [compound 403]", "Peptide exchange (MHC class I binding score, peptide exchange yield)": "“++” (≥20% = ++)"},
      {"substance": "405 (ALYDVFLEV; listed as Homo sapiens) [compound 405]", "Peptide exchange (MHC class I binding score, peptide exchange yield)": "“++” (≥20% = ++)"},
      {"substance": "407 (YLMDLINFL; listed as Homo sapiens) [compound 407]", "Peptide exchange (MHC class I binding score, peptide exchange yield)": "“+++” (≥50 = +++)"},
      {"substance": "408 (VLDDSIYLV; listed as Homo sapiens) [compound 408]", "Peptide exchange (MHC class I binding score, peptide exchange yield)": "“++” (≥20% = ++)"}
    ]}
  ]
}
